Test results from patent US20170088593A1 (UNIVERSITY OF FLORIDA RESEARCH FOUNDATION, published 2017).

Target: Keap-1 (UniProt Q14145 1-624)
Assay: cell-based or functional assay

Sequence of Keap-1 (Q14145 whole entry): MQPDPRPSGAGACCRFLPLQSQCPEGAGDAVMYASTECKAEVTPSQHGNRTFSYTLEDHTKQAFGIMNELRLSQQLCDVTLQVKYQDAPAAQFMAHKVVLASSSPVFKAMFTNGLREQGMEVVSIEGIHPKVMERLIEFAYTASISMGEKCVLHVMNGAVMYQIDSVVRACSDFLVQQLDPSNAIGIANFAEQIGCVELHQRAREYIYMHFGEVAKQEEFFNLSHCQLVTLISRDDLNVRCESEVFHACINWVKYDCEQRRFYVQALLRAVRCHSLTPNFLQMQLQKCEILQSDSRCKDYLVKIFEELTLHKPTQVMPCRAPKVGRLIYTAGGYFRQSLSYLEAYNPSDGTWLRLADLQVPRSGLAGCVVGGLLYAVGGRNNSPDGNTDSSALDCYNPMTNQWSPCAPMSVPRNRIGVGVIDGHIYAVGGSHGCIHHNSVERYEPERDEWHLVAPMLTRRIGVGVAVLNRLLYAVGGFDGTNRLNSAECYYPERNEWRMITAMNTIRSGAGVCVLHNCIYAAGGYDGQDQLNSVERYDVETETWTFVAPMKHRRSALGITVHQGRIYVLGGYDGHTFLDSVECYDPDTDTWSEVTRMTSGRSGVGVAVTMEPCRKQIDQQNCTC

RKKRRQRRRLQLDEETGEFLPIQ [TatNrf2-14mer peptide (HIV-1 Tat cell penetrating peptide fused to the Nrf2 14mer)]
GSTM1 mRNA (antioxidant enzyme and marker of the ARE response), RT-PCR in human retinal pigment epithelial cells treated with the TatNrf2 plasmid: 18 fold
